As a reminder, the IC50 is the concentration that gives 50% inhibition.

Test [1] concerns the target HLA-A*68:02. As to the kind of experiment: IEDB peptide-MHC binding, cellular MHC/competitive/fluorescence; ≥ and ≤ were set here for values at or beyond the usual limits of such assays.
The next test concerns the target HLA-A*02:03. The test is described as above.
The target of test [2] is HLA-A*02:01. Described as above.
A further test has as its target HLA-A*02:02. As to the kind of experiment: IEDB peptide-MHC binding, purified MHC/competitive/radioactivity; ≥ and ≤ were set here for values at or beyond the usual limits of such assays.
For another test, the target named is HLA-A*02:06. The description is as above.
In test [3] the target is HLA-A*68:02. Described as above.
The target of test [4] is HLA-A*02:01. The description is as above.
Where [5] appears, read: source organism: Influenza A virus.
Where [6] appears, read: source organism: Mammarenavirus lassaense.
[7] abbreviates: source organism: Vaccinia virus WR.
Setting [8] is: source organism: Mammarenavirus whitewaterense.
Where [9] appears, read: source organism: Mammarenavirus brazilense.
The mark [10] stands for this setting: source organism: Mammarenavirus machupoense.

With CAAMDDFQL, the IC50 with HLA-A*68:02 [1] (setting [5]) stood at 5.07 µM; with HLA-A*02:03 (setting [5]), 22.8 µM; in the test with HLA-A*02:01 [2] (setting [5]), 10.9 µM; with HLA-A*02:02 (setting [5]), 1.01 µM; in the test with HLA-A*02:06 (setting [5]), 2.1 µM.

Take CNYSKYWYL: the IC50 in the test with HLA-A*02:03 (setting [6]) amounted to 7.13 µM; with HLA-A*02:01 [2] (setting [6]), 16.3 µM; with HLA-A*68:02 [3] (setting [6]), 4.19 µM; in the test with HLA-A*02:02 (setting [6]) it was 3.66 µM; with HLA-A*02:06 (setting [6]), 2.71 µM.

In the case of CTMERTNDLT, the 50% inhibitory concentration (IC50) in the test with HLA-A*02:03 (setting [7]) was 16.1 µM; in the test with HLA-A*02:01 [2] (setting [7]), 18.6 µM; with HLA-A*68:02 [3] (setting [7]), 0.0087 µM; in the test with HLA-A*02:02 (setting [7]), 4.05 µM; with HLA-A*02:06 (setting [7]), 1.01 µM.

For the sequence CTNDIYCDEI, the IC50 with HLA-A*02:03 (setting [7]) was 5.72 µM; with HLA-A*02:01 [2] (setting [7]), 9.06 µM; with HLA-A*68:02 [3] (setting [7]), 0.192 µM; with HLA-A*02:02 (setting [7]), 2.46 µM; with HLA-A*02:06 (setting [7]), 4.76 µM.

On to DIPTFNSLNT, for which the IC50 with HLA-A*02:03 (setting [7]) amounted to 16.6 µM; in the test with HLA-A*02:01 [2] (setting [7]), 23 µM; with HLA-A*68:02 [3] (setting [7]), 0.9 µM; in the test with HLA-A*02:02 (setting [7]), 2.02 µM; in the test with HLA-A*02:06 (setting [7]), 0.045 µM.

For DISSFYWSL, the IC50 with HLA-A*02:03 (setting [7]) was 6.87 µM; with HLA-A*02:01 [2] (setting [7]), 8.51 µM; with HLA-A*68:02 [3] (setting [7]), 0.028 µM; with HLA-A*02:02 (setting [7]), 0.391 µM; with HLA-A*02:06 (setting [7]), 3.97 µM.

With EQGDIALAL, the IC50 worked out at 11.1 µM with HLA-A*02:03 (setting [7]); 13 µM with HLA-A*02:01 [2] (setting [7]); 0.8 µM with HLA-A*68:02 [3] (setting [7]); 0.701 µM in the test with HLA-A*02:02 (setting [7]); 4.77 µM with HLA-A*02:06 (setting [7]).

GLLQFIVFL: the half-maximal inhibitory concentration (IC50) in the test with HLA-A*68:02 [1] (setting [8]) came to 12 µM; with HLA-A*02:03 (setting [8]) it was 7.72 µM; in the test with HLA-A*02:02 (setting [8]), 0.0006 µM; in the test with HLA-A*02:01 [4] (setting [8]) it was 0.0075 nM; in the test with HLA-A*02:06 (setting [8]) it was 0.012 µM.

HLTENNLYI: the 50% inhibitory concentration (IC50) came out at 5.81 µM with HLA-A*68:02 [1] (setting [7]); 14.4 µM with HLA-A*02:03 (setting [7]); 0.114 µM in the test with HLA-A*02:02 (setting [7]); 15 nM with HLA-A*02:01 [4] (setting [7]); 1.81 µM with HLA-A*02:06 (setting [7]).

As for HTYHLENDKI, the concentration for half-maximal inhibition (IC50) amounted to 13.7 µM with HLA-A*02:03 (setting [7]); 59 µM with HLA-A*02:01 [2] (setting [7]); 0.284 µM with HLA-A*68:02 [3] (setting [7]); 1.79 µM with HLA-A*02:02 (setting [7]); 1.99 µM with HLA-A*02:06 (setting [7]).

On to IASGQRCHFI, for which the 50% inhibitory concentration (IC50) in the test with HLA-A*02:03 (setting [7]) worked out at 8.32 µM; in the test with HLA-A*02:01 [2] (setting [7]), 18.4 µM; with HLA-A*68:02 [3] (setting [7]), 4.22 µM; in the test with HLA-A*02:02 (setting [7]), 0.526 µM; in the test with HLA-A*02:06 (setting [7]), 0.256 µM.

On to IASILSLET, for which the IC50 was 7.76 µM with HLA-A*68:02 [1] (setting [7]); 7.48 µM with HLA-A*02:03 (setting [7]); 3.67 µM with HLA-A*02:02 (setting [7]); 2540 nM with HLA-A*02:01 [4] (setting [7]); 0.318 µM in the test with HLA-A*02:06 (setting [7]).

In the case of ITDDSDDYEL, the IC50 with HLA-A*68:02 [1] (setting [7]) worked out at 11.9 µM; with HLA-A*02:03 (setting [7]) it was 11.9 µM; in the test with HLA-A*02:02 (setting [7]), 0.687 µM; with HLA-A*02:01 [4] (setting [7]), 1730 nM; in the test with HLA-A*02:06 (setting [7]), 0.049 µM.

For the sequence KIDKLTFQI, the half-inhibitory concentration (IC50) with HLA-A*68:02 [1] (setting [7]) worked out at 36.9 µM; in the test with HLA-A*02:03 (setting [7]), 10.6 µM; in the test with HLA-A*02:02 (setting [7]), 0.141 µM; with HLA-A*02:01 [4] (setting [7]), 134 nM; with HLA-A*02:06 (setting [7]) it was 0.042 µM.

On to KNATWCLEV, for which the half-inhibitory concentration (IC50) with HLA-A*02:03 (setting [9]) is 7.02 µM; with HLA-A*02:01 [2] (setting [9]), 12.8 µM; with HLA-A*68:02 [3] (setting [9]) it was 1.39 µM; in the test with HLA-A*02:02 (setting [9]) it was 1.62 µM; with HLA-A*02:06 (setting [9]), 2.31 µM.

In the case of KQIMECSRML, the IC50 with HLA-A*68:02 [1] (setting [7]) turned out to be 7.47 µM; with HLA-A*02:03 (setting [7]), 29.6 µM; with HLA-A*02:02 (setting [7]), 0.055 µM; with HLA-A*02:01 [4] (setting [7]), 357 nM; with HLA-A*02:06 (setting [7]), 0.06 µM.

In the case of LLLIVQALR, the half-inhibitory concentration (IC50) with HLA-A*68:02 [1] (setting [5]) came to 42.4 µM; with HLA-A*02:03 (setting [5]), 8.19 µM; with HLA-A*02:02 (setting [5]), 1.49 µM; in the test with HLA-A*02:01 [4] (setting [5]), 3090 nM; with HLA-A*02:06 (setting [5]), 3.15 µM.

As for LNKSDSSWAV, the 50% inhibitory concentration (IC50) is 8.7 µM in the test with HLA-A*68:02 [1] (setting [10]); 5.25 µM with HLA-A*02:03 (setting [10]); 0.55 µM in the test with HLA-A*02:02 (setting [10]); 1230 nM in the test with HLA-A*02:01 [4] (setting [10]); 2.19 µM with HLA-A*02:06 (setting [10]).

As to LTHFNNNENV, the half-inhibitory concentration (IC50) with HLA-A*02:03 (setting [7]) is 7.27 µM; with HLA-A*02:01 [2] (setting [7]), 6.59 µM; with HLA-A*68:02 [3] (setting [7]), 0.011 µM; with HLA-A*02:02 (setting [7]), 0.907 µM; with HLA-A*02:06 (setting [7]) it was 0.996 µM.

For the sequence LTSVDIETA, the IC50 in the test with HLA-A*02:03 (setting [7]) worked out at 11.5 µM; in the test with HLA-A*02:01 [2] (setting [7]) it was 24 µM; with HLA-A*68:02 [3] (setting [7]) it was 1.24 µM; with HLA-A*02:02 (setting [7]), 4.92 µM; with HLA-A*02:06 (setting [7]), 0.311 µM.

Consider MLIIFWFSL, for which the IC50 in the test with HLA-A*68:02 [1] (source organism: SARS-CoV1) turned out to be 6.91 µM; in the test with HLA-A*02:03 (source organism: SARS-CoV1) it was 13 µM; with HLA-A*02:02 (source organism: SARS-CoV1) it was 0.132 µM; with HLA-A*02:01 [4] (source organism: SARS-CoV1), 1160 nM; in the test with HLA-A*02:06 (source organism: SARS-CoV1), 0.49 µM.

Take MSPALFFTFL: the IC50 with HLA-A*02:03 (setting [9]) was 7.64 µM; with HLA-A*02:01 [2] (setting [9]), 6.38 µM; with HLA-A*68:02 [3] (setting [9]), 0.102 µM; in the test with HLA-A*02:02 (setting [9]), 0.547 µM; with HLA-A*02:06 (setting [9]), 0.834 µM.
